The experiment can be described thus: Oxygen dissociation rates of DevS proteins, stopped flow. It counts as binding, Mycobacterium tuberculosis.

B1: full-length Y171F DevS (protein, UniProt P9WGK3 1-578, looked up, variant Y171F)
chain: MTTGGLVDENDGAAMRPLRHTLSQLRLHELLVEVQDRVEQIVEGRDRLDGLVEAMLVVTAGLDLEATLRAIVHSATSLVDARYGAMEVHDRQHRVLHFVYEGIDEETVRRIGHLPKGLGVIGLLIEDPKPLRLDDVSAHPASIGFPPYHPPMRTFLGVPVRVRDESFGTLFLTDKTNGQPFSDDDEVLVQALAAAAGIAVANARLYQQAKARQSWIEATRDIATELLSGTEPATVFRLVAAEALKLTAADAALVAVPVDEDMPAADVGELLVIETVGSAVASIVGRTIPVAGAVLREVFVNGIPRRVDRVDLEGLDELADAGPALLLPLRARGTVAGVVVVLSQGGPGAFTDEQLEMMAAFADQAALAWQLATSQRRMRELDVLTDRDRIARDLHDHVIQRLFAIGLALQGAVPHERNPEVQQRLSDVVDDLQDVIQEIRTTIYDLHGASQGITRLRQRIDAAVAQFADSGLRTSVQFVGPLSVVDSALADQAEAVVREAVSNAVRHAKASTLTVRVKVDDDLCIEVTDNGRGLPDEFTGSGLTNLRQRAEQAGGEFTLASVPGASGTVLRWSAPLSQ
modifications: full-length
On to B1, for which the O2 koff is 3.85 ± 0.69 ^b s^−1.

These data come from article PMC2756985 (Biochemistry, 2009).
